Literature values in PMC6515277.
pKd: −log10 of the molar value. Like-named read-outs stand apart in the source and are kept apart here.

Assays:
[1] = target: merlin CTD CTD (Homo sapiens) (UniProt P35240); assay: ITC
[2] = target: merlin CTD CTD (Homo sapiens) (UniProt P35240); assay: ITC; remark: listed apart in the source

For merlin FERM FERM (from UniProt P35240), the pKd [1] is listed as 5.40 and the pKd [2] is listed as 5.40.
